# B1: Azurin wild type, P00282 (protein)
# chain: MLRKLAAVSLLSLLSAPLLAAECSVDIQGNDQMQFNTNAITVDKSCKQFTVNLSHPGNLPKNVMGHNWVLSTAADMQGVVTDGMASGLDKDYLKPDDSRVIAHTKLIGSGEKDSVTFDVSKLKEGEQYMFFCTFPGHSALMKGTLTLK
# Conditions: Pseudomonas aeruginosa (strain ATCC 15692 / DSM 22644 / CIP 104116 / JCM 14847 / LMG 12228 / 1C / PRS 101 / PAO1); pH 7.2; 20 °C; GdnHCl; CD + Fluorescence; Tris-HCl 50 mM; reversible: yes; whole UniProt chain shown
protein,measurement,value
B1,denaturant m value,3.3 kcal/mol/M
same,denaturant midpoint (higher = more stable),2.78 M
same,unfolding free energy,9.4 kcal/mol
